What was measured:
[1] = target: T1, SARS-CoV-2 receptor binding domain (RBD) (SARS-CoV-2, UniProt P0DTC2 319-591); assay: BLI, mAb on anti-human Fc probe, antigen in solution
[2] = target: T1, SARS-CoV-2 receptor binding domain (RBD); assay: BLI: mAb on anti-human Fc probe, dipped in the antigen
[3] = target: T1, SARS-CoV-2 receptor binding domain (RBD); assay: as above; remark: listed apart in the source
[4] = target: T1, SARS-CoV-2 receptor binding domain (RBD); assay: as above; remark: listed apart in the source
[5] = target: T1, SARS-CoV-2 receptor binding domain (RBD); assay: as above; remark: listed apart in the source

B1: CV2-43 (antibody, V domains shown)
VH: QVQLVQSGAEVKKPGSSVKVSCKASGGTFSSYAISWVRQAPGQGLEWMGGIIPIFGTANYAQKFQGRVTITADESTSTAYMELSSLRSEDTAVYYCARAYSYDSSGYSPDYWGQGTLVTVSS
VL: EIVLTQSPATLSLSPGERATLSCRASQSVSSYLAWYQQKPGQAPRLLIYDASNRATGIPARFSGSGSGTDFTLTISSLEPEDFAVYYCQQRSNWPPKLTFGGGTKVEIK
notes: expressed as IgG
- binding result [1]: no binding

B2: CV2-44 (antibody, V domains shown)
VH: QVQLVQSGAEVKKPGASVKVSCKASGYTFISYGISWVRQAPGQGLEWMGWISGYNGNTNYAQKFQGRVTMTTDTSTSTAYMELRSLRSDDTAVYYCARVRIFGVVIIVDTAMVLDYWGQGTLVTVSS
VL: QSVLTQPPSVSAAPGQKVTISCSGSSSNIGNNYVSWYQQLPGTAPKLLIYENNKRPSGIPDRFSGSKSGTSATLGITGLQTGDEAHYYCGTWDSSLSAGVFGGGTKLTVL
- binding result [2]: no binding

B3: CV2-45 (antibody, V domains shown)
VH: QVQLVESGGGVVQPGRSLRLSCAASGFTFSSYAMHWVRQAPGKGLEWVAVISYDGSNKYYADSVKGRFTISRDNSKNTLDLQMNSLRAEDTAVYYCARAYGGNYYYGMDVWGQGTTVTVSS
VL: AIQLTQSPSSLSASVGDRVTITCRASQGISSALAWYQQKPGKAPKLLIYDASSLESGVPSRFSGSGSGTDFTLTISSLQPEDFATYYCQQFNNYPLTFGGGTKVEIK
- binding result [3]: no binding

B4: CV2-47 (antibody, V domains shown)
VH: QVQLVQSGAEVKKPGSSVKVSCKTSGGTFSNYAISWVRQAPGQGLEWMGGIIPIFGTANYAQKFQGRVTFTADESTSTAYMELSSLRSEDTAVFYCVSRIAAAADFDYWGQGTLVTVSS
VL: EIVLTQSPATLSLSPGERATLSCRASQSISSYLAWYQQKPGQAPRLLIYDASNRATGIPARFSGSGSGTDFTLTISSLEPEDFAVYYCQQRSNWPPLLTFGGGTKVEIK
- binding result [4]: no binding

B5: CV2-50 (antibody, V domains shown)
VH: QVQLVESGGGVVQPGRSLRLSCAASGFTFSSYGMHWVRQAPGKGLEWVAVISYDGSNQYYADSVKGRFTISRDNSKNTLYLQMNSLRAEDTAVYYCAKDPTIFGVVLQIPRFDYWGQGTLVTVSS
VL: EIVLTQSPATLSLSPGERATLSCRASQSVSSYLAWYQQKPGQAPRLLIYDASNRATGIPARFSGSGSGTDFTLTISSLEPEDFAVYYCQQRSNWPPTFGQGTKLEIK
- binding result [5]: no binding

From US20230212266A1 (FRED HUTCHINSON CANCER CENTER, published 2023)
